In US20220278152, “SPECTRALLY FILTERED PHOTODIODE PAIR” (UNIVERSITY OF MASSACHUSETTS, published 2022):

How the values were obtained:
Interferon gamma (IFN-γ) = Interferon gamma (IFN-γ) (Homo sapiens, UniProt P01579 P01579:24-166); assay: FRET ratiometric photodiode aptasensor; aptamer on AF555-streptavidin/biotin-BSA surface; signal change 0.1-10 pM, LOD 1 pM, saturated at 100 pM-1 nM; 1x PBS; reversible by 55 C water wash; settings: tags: R&D Systems, recombinant human IFN-γ; chain copies: 2; label: Cy5 (5'), biotin (3'); hairpin (self-hybridizes without IFN-γ)
Source text: To package the PD array for ratiometric aptasensing experiments, a 50 μm tall PDMS microfluidic channel with one inlet and one outlet hole was fabricated via a standard SU-8 photolithography process, and then bonded the microfluidic channel over the PD array via O₂ plasma. Tubing was inserted into the inlet and outlet holes to allow for injection and removal of analytes. To achieve ratiometric aptasensing […], the surface of the array was functionalized by sequentially introducing BSA, AF555 conjugated streptavidin, and biotinylated Cy5 labeled IFN-γ DNA aptamers. After each analyte's respective incubation period, the extra unbonded analyte was removed by washing with 9 mL deionized water.
Following this surface functionalization procedure, two aptasensing experiments were conducted where, in each experiment, the device was kept in 1×PBS and sequentially introduced 0.1 pM-1 nM analyte in 15-minute intervals followed by a water washing step and reintroduced analytes and water washing as 2nd round via the microfluidic channel (FID. 10a-c). During introducing each concentration, an upright fluorescence microscope was used to illuminate the PD array with pulses of 550/15 nm excitation light (Ilight=100%, 260 mW) which have tₒₙ/toff=18/162 s (i.e., 3 min period) to alleviate the photobleaching effect. […]

Streptavidin = Streptavidin (UniProt P22629 P22629:25-183); assay: specificity control; 0.1 pM-1 nM free streptavidin, <5% signal change, 1x PBS; biotinylated aptamer already immobilised on surface streptavidin; settings: tags: Sigma Aldrich; chain copies: 4; label: Cy5 (5'), biotin (3'); hairpin (self-hybridizes without IFN-γ)
Description: After each analyte's respective incubation period, the extra unbonded analyte was removed by washing with 9 mL deionized water.
Following this surface functionalization procedure, two aptasensing experiments were conducted where, in each experiment, the device was kept in 1×PBS and sequentially introduced 0.1 pM-1 nM analyte in 15-minute intervals followed by a water washing step and reintroduced analytes and water washing as 2nd round via the microfluidic channel (FID. 10a-c). During introducing each concentration, an upright fluorescence microscope was used to illuminate the PD array with pulses of 550/15 nm excitation light (Ilight=100%, 260 mW) which have tₒₙ/toff=18/162 s (i.e., 3 min period) to alleviate the photobleaching effect.
For the first experiment, streptavidin was sequentially introduced as a control to evaluate the specificity of the array. […] For the second experiment, IFN-γ was sequentially introduced to evaluate the sensibility of the array. […] Due to this conformation change, less AF555 emission light will excite the Cy5 molecules, leading to the observed increase [decrease] in AF555 [Cy5] pixel signals.

Chain of Interferon gamma (IFN-γ) (P01579 24-166, one chain of several): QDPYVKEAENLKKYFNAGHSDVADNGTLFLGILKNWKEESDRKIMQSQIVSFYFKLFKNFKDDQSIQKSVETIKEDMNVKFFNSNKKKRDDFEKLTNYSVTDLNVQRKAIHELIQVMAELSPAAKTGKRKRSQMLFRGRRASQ
Chain of Streptavidin (P22629 25-183, one chain of several): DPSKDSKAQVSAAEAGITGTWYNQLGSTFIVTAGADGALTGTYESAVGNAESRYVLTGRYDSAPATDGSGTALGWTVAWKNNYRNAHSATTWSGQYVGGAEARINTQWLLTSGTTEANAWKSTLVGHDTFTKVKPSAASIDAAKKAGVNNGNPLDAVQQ

GGGGTTGGTTGTGTTGGGTGTTGTGTCCAACCCCTTT (ssDNA, 5' Cy5, 3' biotin [1 (5' Cy5), 37 (3' biotin)]) [IFN-γ DNA aptamer]: binds (Interferon gamma (IFN-γ)); no binding (Streptavidin).
